# In patent US20240392028A1:
# B1: CAEL-101 antibody having a heavy chain variable domain (VH) as set forth in SEQ ID NO:1 and a light chain variable domain (VL) as set forth in SEQ ID NO:2 (antibody, human IgG1, V domains shown)
# VH: QVQLKESGPGLVAPSQSLSITCTVSGFSLSSYGVSWVRQPPGKGLEWLGVIWGDGSTNYHPNLMSRLSISKDISKSQVLFKLNSLQTDDTATYYCVTLDYWGQGTSVTVSS
# VL: DVVMTQTPLSLPVSLGDQASISCRSSQSLVHRNGNTYLHWYLQKPGQSPKLLIYKVSNRFSGVPDRFSGSGSGTDFTLKISRVEAEDLGLYFCFQTTYVPNTFGGGTKLEIK
# Target: highest binding amyloid (in vitro)
# Experiment: calculated from in vitro binding of the antibody to amyloid; method not described
binder,measurement,value
B1,Michaelis-Menton EC 90 (calculated),36.5 µg/mL
